According to the supplement of paper PMC10567573:

B1: TRAF3IP2 (parent)
chain: KQGSMNFRFIPVLFPNAKKEHVPT
B2: CFHR2 (parent)
chain: FVENGHSESSGQTHLEGDTVQIIC

Variants of: B1
Experiment: protein stability index of a GFP-peptide fusion (GPS, HEK-293T) (PSI 1-6); higher = more stable
Conditions: c terminus: a fixed tail appended
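Further: lentivirally expressed fusions sorted by FACS into six bins by GFP to DsRed ratio, PSI derived from sequencing read proportions per bin multiplied by bin number.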

Protein stability index: each site, then its substitutions
V22: I 2.11, N 2.23, K 2.61, R 1.99, F 2.16, M 2.24, Y 1.91, H 1.73, W 1.6, T 2.38, D 2.89, L 2.09, Q 1.96, S 3, G 2.4, C 2, E 2.19, P 1.82, A 2.22
K19: Y 1.99, S 1.98, T 1.75, P 1.6, R 1.59, W 1.65, Q 1.84, V 1.65
T24: R 2.33, M 1.87, N 1.97, K 2.19, Y 2.5, G 2.14, L 1.67, F 1.75, D 2.16, E 2.35, P 2.14, S 1.65, V 1.76, H 1.89, Q 1.92, A 2.25, C 1.94, I 1.7, W 2.06
H21: R 1.72, I 1.59, F 1.66, W 1.81, D 2.06, N 2.21, Y 1.82, S 2.07, C 2.02, M 2.13, V 1.94, T 2.15, K 1.77, A 2.19, L 2.23, G 2.3, P 2.14, Q 1.78, E 2.47
P23: I 1.77, V 1.4, Y 1.84, H 1.83, L 2.16, E 2.19, F 1.79, W 2.58, A 1.82, T 2.27, C 1.96, Q 1.69, D 2.29, G 2.15, K 2, S 1.88, R 2.05, N 1.86, M 1.78
E20: Y 1.77, F 1.93, M 2.3, D 2.33, C 1.85, H 2.03, L 1.67, Q 2.02, T 2.05, A 2.11, R 1.65, S 1.73, K 1.68, V 2.26, N 2.15, P 2.12, W 1.9, G 2.24, I 2.19

Variants of: B2
Experiment: as above
Conditions: c terminus: a fixed tail appended

Protein stability index, by site and new letter:
T13: E 3.3, A 2.54, F 1.88, D 3.43, C 2.55
E8: A 2.15, K 1.97, W 3.2, Y 2.29, Q 2.15, P 2.51, C 1.82, V 2.45, T 2.16, S 2.32, D 2.75, L 1.81, M 1.57, N 2.18, H 2.08, G 2.22, I 1.57, F 1.64, R 2.28
V2: I 3.72, D 4.19, H 3.82, L 3.59, A 4, C 4, S 4.18, T 3.94, P 3.88, W 3.35, Y 3.44, Q 3.81, G 3.62, K 4.01, E 4.54, N 4.16, F 3.62, R 3.96, M 3.12
S7: G 2.63, K 2.84, N 3.14, R 2.29, C 2.34, T 3.24, D 3.09, A 2.72, Y 1.64, V 2.39, W 4.33, L 3.1, F 1.43, E 3.87, I 2.42, P 3.12, M 2.19, H 2.75, Q 3.04
S9: F 2.19, I 2.2, Y 1.66, H 2.77, M 2.32, C 2.02, P 2.75, T 2.78, D 3.23, E 3.22, R 2.14, N 2.76, Q 3.14, K 2.76, G 2.7, A 2.5, L 1.99, V 2.15
N4: E 3.47, D 3.92, V 2.18, I 2.13, P 2.53, W 2.8, H 2.62, C 1.98, T 2.51, A 2.42, F 1.83, Y 2.37, M 1.8, S 2.4, G 2.59, R 2.05, K 3.03, L 1.76, Q 2.81
G5: D 3.64, R 1.82, V 2.87, H 2.49, S 3.01, Q 2.57, Y 3.09, N 3.23, E 4.09, I 2.2, C 2.03, T 2.97, K 2.64, L 2.77, M 2.28, A 2.77, W 3.48, P 2.27, F 2.55
Q12: E 3.67, P 3.19, R 1.92, F 2.23, I 2.06, L 1.69, T 2.62, K 2.05, S 2.49, C 1.86, M 1.76, W 2.35, H 2.4, Y 1.62, G 3.2, A 2.43, D 3.46, V 2.08, N 3.39
S10: F 1.97, G 2.87, V 1.75, C 2, H 2.34, K 2.65, D 3.51, Q 2.77, R 2.59, A 2.65, I 1.56, L 2.31, N 2.99, E 3.33, P 3.49, Y 1.94, M 2.08, T 2.73
F1: G 4.33, C 3.73, V 3.92, A 4.27, S 4.14, K 4.2, Q 4.37, R 3.83, E 4.95, L 3.89, N 4.1, T 3.96, I 4, M 4.23, D 4.7, H 4.43, P 4.61, W 3.86, Y 2.69
G11: P 3.22, D 3.4, T 2.86, W 2.33, I 1.81, V 2.67, M 2.03, S 2.48, F 1.98, Y 2.04, E 3.32, R 2.86, H 2.67, A 2.56, L 2.5, C 2.19, K 2.39, Q 2.96, N 3.09
H6: D 3.87, I 2.57, T 2.79, N 3.52, E 3.65, R 2.85, W 2.7, C 2.28, L 2.19, F 2.29, K 3.33, P 3.18, G 3.12, A 3.02, Q 2.37, Y 1.93, M 2.32, S 2.92, V 2.74
E3: N 1.92, D 1.74, C 1.38, T 2.23, I 1.94, Y 1.98, P 2.38, V 1.54, R 1.67, L 1.81, G 2.83, M 1.5, A 2.11, H 2.08, K 1.78, W 1.56, S 2.12, F 2.04, Q 1.83
